Reference: PMC5262456 (Science Advances, 2016)

B1: Spy (ATP-independent periplasmic chaperone), wild type (natural protein, UniProt P77754 24-161, looked up)
chain: ADTTTAAPADAKPMMHHKGKFGPHQDMMFKDLNLTDAQKQQIREIMKGQRDQMKRPPLEERRAMHDIIASDTFDKVKAEAQIAKMEEQRKANMLAHMETQNKIYNILTPEQKKQFNANFEKRLTERPAAKGKMPATAE

Assays:
AUC = biological target: the molecule itself; experiment: AUC
[1] = biological target: B1; experiment: intramolecular paramagnetic relaxation enhancement
[2] = biological target: B1; experiment: ITC
[3] = biological target: T1, Skp (ATP-independent periplasmic chaperone) (UniProt P0AEU7 21-161); experiment: NMR titration
T1 sequence (looked up): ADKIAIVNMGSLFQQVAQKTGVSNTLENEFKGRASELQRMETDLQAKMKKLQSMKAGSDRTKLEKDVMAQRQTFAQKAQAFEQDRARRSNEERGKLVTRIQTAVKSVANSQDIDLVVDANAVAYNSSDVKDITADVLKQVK

[4] = biological target: T2, SurA (ATP-independent periplasmic chaperone) (UniProt P0ABZ6 21-428); experiment: NMR titration
T2 sequence (looked up): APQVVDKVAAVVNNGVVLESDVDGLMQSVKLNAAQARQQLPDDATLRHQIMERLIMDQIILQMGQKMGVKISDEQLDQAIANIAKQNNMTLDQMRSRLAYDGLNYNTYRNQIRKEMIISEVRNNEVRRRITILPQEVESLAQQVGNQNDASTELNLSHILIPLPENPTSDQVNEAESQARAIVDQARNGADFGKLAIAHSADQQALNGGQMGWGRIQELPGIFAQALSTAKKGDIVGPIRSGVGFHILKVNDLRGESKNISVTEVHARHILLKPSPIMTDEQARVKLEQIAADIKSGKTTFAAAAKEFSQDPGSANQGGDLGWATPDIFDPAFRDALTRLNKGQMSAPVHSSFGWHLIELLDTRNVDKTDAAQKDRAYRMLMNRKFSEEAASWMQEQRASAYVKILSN

[5] = biological target: T3, Spy M85C with MTSL spin label (UniProt P77754 24-161, M85C, MTSL spin label on cysteine 85); experiment: intermolecular paramagnetic relaxation enhancement
T3 sequence (looked up): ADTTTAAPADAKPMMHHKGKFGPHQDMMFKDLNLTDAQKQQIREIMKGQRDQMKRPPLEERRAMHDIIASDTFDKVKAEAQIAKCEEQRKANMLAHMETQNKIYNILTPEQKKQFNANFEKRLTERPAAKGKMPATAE

[6] = biological target: T1, Skp (ATP-independent periplasmic …)
[7] = biological target: T2, SurA (ATP-independent periplasmic …)
[8] = biological target: T4, Spy M53C with MTSL spin label (UniProt P77754 24-161, M53C, MTSL spin label on cysteine 53); experiment: intermolecular paramagnetic relaxation enhancement
T4 sequence (looked up): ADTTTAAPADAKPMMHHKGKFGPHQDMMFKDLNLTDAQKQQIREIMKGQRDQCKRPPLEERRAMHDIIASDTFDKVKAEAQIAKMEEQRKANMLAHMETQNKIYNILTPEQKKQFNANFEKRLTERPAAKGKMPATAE

[9] = biological target: T5, Spy T99C with MTSL spin label (UniProt P77754 24-161, T99C, MTSL spin label on cysteine 99); experiment: intermolecular paramagnetic relaxation enhancement
T5 sequence (looked up): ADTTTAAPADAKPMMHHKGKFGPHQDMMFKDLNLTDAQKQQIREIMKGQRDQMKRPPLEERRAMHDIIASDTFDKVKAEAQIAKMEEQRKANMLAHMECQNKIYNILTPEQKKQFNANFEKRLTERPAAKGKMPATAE

[10] = biological target: B1; experiment: SPR

## B1
AUC
  stoichiometry N: 2

B2: Im7U T30C with MTSL spin label (natural protein, UniProt Q03708 1-87, looked up)
chain: MELKNSISDYTEAEFVQAAKEIEKENVAACDDVLDVALEHFVKITEHPDGTDLIYYPSDNRDDSPEGIVKEIKEWRAANGKPGFKQG
modifications: MTSL spin label on cysteine 30
[1]
  binding result: binds

B3: Im7U T11C with MTSL spin label (natural protein, UniProt Q03708 1-87, looked up)
chain: MELKNSISDYCEAEFVQAAKEIEKENVAATDDVLDVALEHFVKITEHPDGTDLIYYPSDNRDDSPEGIVKEIKEWRAANGKPGFKQG
modifications: MTSL spin label on cysteine 11
[1]
  binding result: binds

B4: Im7 L18A L19A L37A (Im7U) (natural protein, UniProt Q03708 1-87, looked up)
chain: MELKNSISDYTEAEFVQAAKEIEKENVAATDDVLDVALEHFVKITEHPDGTDLIYYPSDNRDDSPEGIVKEIKEWRAANGKPGFKQG
[2]
  Kd: 0.327 µM
  dH: 8.9 ± 0.5 kcal/mol
[3]
  binding result: binds
[4]
  binding result: binds
[5]
  binding result: binds

B5: Im7, wild type, full length (natural protein, UniProt Q03708 1-87, looked up)
chain: MELKNSISDYTEAEFVQLLKEIEKENVAATDDVLDVLLEHFVKITEHPDGTDLIYYPSDNRDDSPEGIVKEIKEWRAANGKPGFKQG
[6]
  Kd: 66 µM
[7]
  Kd: 50 µM
[8]
  binding result: binds
[5]
  binding result: binds
[9]
  binding result: binds
[10]
  Kd: 20.3 ± 3.2 µM
